Substitutions are numbered along the chain they refer to.
T1: human IL-1α (human, UniProt P01583 113-271)
T1 sequence (looked up): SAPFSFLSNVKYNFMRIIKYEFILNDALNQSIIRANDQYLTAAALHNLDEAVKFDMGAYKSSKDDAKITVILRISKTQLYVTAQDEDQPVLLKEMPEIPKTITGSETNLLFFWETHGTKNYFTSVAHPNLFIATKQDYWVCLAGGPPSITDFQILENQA

B1: ABT2-108-533x/ABT1-122 hu IgG1/K wt (bispecific antibody, V domains shown)
VH: EVQLLESGGGLVQPGGSLRLSCAASGFTFADEGMMWVRQAPGKGLEWVSRIGQDGKNTYYADSVKGRFTISRDNSKNTLYLQMNSLRAEDTAVYYCAKYTGRILGHHLFDYWGQGTLVTVSS
VL: DIQMTQSPSSLSASVGDRVTITCRASQPIWTELNWYQQKPGKAPKLLIYGSSSLQSGVPRFSGSGSGTDFTLTISSLQPEDFATYYCQQFAYFPATFGQGTKVEIKR
B2: ABT2-65/ABT1-141 hu IgG1/K wt (bispecific antibody, V domains shown)
VH: EVQLLESGGGLVQPGGSLRLSCAASGFTFEDYQMGWVRQAPGKGLEWVSSISAMGNRTYYADSVKGRFTISRDDSKNTLYLQMNSLRAEDTAVYYCAKNLVRTQSKMWMFDYWGQGTLVTVSS
VL: DIQMTQSPSSLSASVGDRVTITCRASQWIQKQLAWYQQKPGKAPKLLIYSSSYLQSGVPRFSGSGSGTDFTLTISSLQPEDFATYYCQQHLRVPFTFGQGTKVEIKR
B3: ABT2-65-17/ABT1-212 hu IgG1/K wt (bispecific antibody, V domains shown)
VH: B2 VH with A23V, K98Q, T103L, Q104G, S105R, K106S, M107R
VL: DIQMTQSPSSLSASVGDRVTITCRASQRINGNLRWYQQKPGKAPKLLIYSVSQLQSGVPSRFSGSGSGTDFTLTISSLQPEDFATYYCQQGYDWPPTFGQGTKVETKR
B4: ABT2-65-8/ABT1-141 hu IgG1/K wt (bispecific antibody, V domains shown)
VH: B2 VH with K98Q, T103M, Q104D, K106R, M107R
VL: B2 VL
B5: ABT2-65-17/ABT1-141 hu IgG1/K wt (bispecific antibody, V domains shown)
VH: B2 VH with A23V, K98Q, T103L, Q104G, S105R, K106S, M107R
VL: B2 VL
B6: ABT2-108/ABT1-122-505 hu IgG1/K wt (bispecific antibody, V domains shown)
VH: EVQLLESGGGLVQPGGSLRLSCAASGFTFAEYTMMWVRQAPGKGLEWVSRIGQDGKNTYYADSVKGRFTISRDNSKNTLYLQMNSLRAEDTAVYYCAKYTGRVGVHHLFDYWGQGTLVTSS
VL: DIQMTQSPSSLSASVGDRVTITCRASQPIWTELNWYQQKPGKAPKLLIYGSSSLQSGVPSRFSGSGSGTDFTLTISSLQPEDFATYYCKQFAYFPATFGQGTKVEIKR
B7: ABT2-108-620x/ABT1-122-750x huIgG1/K wt (bispecific antibody, V domains shown)
VH: B1 VH with D31E, G33S, M34W, A61R, D62E, S63D, L104M
VL: B6 VL with T20A, R24S, P28H, L33I, N34S, S52A, L54R, S56K, A96N
B8: ABT2-108/ABT1-122-508 hu IgG1/K wt (bispecific antibody, V domains shown)
VH: B6 VH
VL: B6 VL with S56R, K89Q
B9: ABT2-108-620x/ABT1-122-512 huIgG1/K wt (bispecific antibody, V domains shown)
VH: B1 VH with D31E, G33S, M34W, A61R, D62E, S63D, L104M
VL: B6 VL with S52A, S53K, L54R, S56R
B10: ABT2-108/ABT1-122-556 hu IgG1/K wt (bispecific antibody, V domains shown)
VH: B6 VH
VL: B6 VL with Y87H, K89Q
B11: ABT2-108/ABT1-122-554 hu IgG1/K wt (bispecific antibody, V domains shown)
VH: B6 VH
VL: B6 VL with K89Q, G101E
B12: ABT2-108-538x/ABT1-122-555 hu IgG1/K wt (bispecific antibody, V domains shown)
VH: B1 VH with G52T, Q53Y, D54S
VL: B6 VL with A43T, K89Q
B13: ABT2-108-620x/ABT1-122-750MT hu IgG1 wt (bispecific antibody, V domains shown)
VH: B1 VH with D31E, G33S, M34W, A61R, D62E, S63D, L104M
VL: B6 VL with R24S, P28H, L33M, N34S, A43T, S52A, L54R, S56K, A96N
B14: ABT2-108/ABT1-122-555 hu IgG1/K wt (bispecific antibody, V domains shown)
VH: B6 VH
VL: B6 VL with A43T, K89Q
B15: ABT2-108-521/ABT1-122-511 hu IgG1/K wt (bispecific antibody, V domains shown)
VH: B1 VH with D31E, E32Y, G33T
VL: B6 VL with S56R
B16: ABT2-108-620x/ABT1-122-750M hu IgG1 wt (bispecific antibody, V domains shown)
VH: B1 VH with D31E, G33S, M34W, A61R, D62E, S63D, L104M
VL: B6 VL with R24S, P28H, L33M, N34S, S52A, L54R, S56K, A96N
B17: ABT2-13 (other)
VH: EVQLLESGGGLVQPGGSLRLSCAASGFTFRDYVMYWARQAPGKGLEWVSRIDPMGSSTYYADSVKGRFTISRDNSKNTLYLQMNSLRAEDTAVYYCAKPEGNFDYWGQGTLVTVSS
B18: ABT2-65 (other)
VH: B2 VH
B19: ABT2-65-6 (other)
VH: B2 VH with K98Q
notes: VH dAb
B20: ABT2-65-82 (other)
VH: B2 VH with Q13R, A23V, S75P, K98Q, T103L, Q104G, S105R, K106S, M107R
notes: VH dAb
B21: ABT2-65-48 (other)
VH: B2 VH with N99W, L100Q, V101M, M107L, W108G, M109Y
notes: VH dAb
B22: ABT2-65-113 (other)
VH: B2 VH with E30V, D31Q, K98Q, T103L, Q104G, S105R, K106S, M107R
notes: VH dAb
B23: ABT2-65-47 (other)
VH: B2 VH with N99W, L100R, V101K, M107L, W108G, M109Y
notes: VH dAb
B24: ABT2-65-7 (other)
VH: B2 VH with M54T, K98Q, Q104R, S105I
notes: VH dAb
B25: ABT2-65-81 (other)
VH: B2 VH with A23V, D31E, K98Q, T103L, Q104G, S105R, K106S, M107R
notes: VH dAb
B26: ABT2-65-85 (other)
VH: B2 VH with L5M, A23V, T69A, E89K, K98Q, T103L, Q104G, S105R, K106S, M107R
notes: VH dAb
B27: ABT2-65-140 (other)
VH: B2 VH with K98E, R102K, T103I, Q104S, S105R, K106R, M107H
notes: VH dAb
B28: ABT2-65-154 (other)
VH: B2 VH with Y59H, K98Q, T103I, Q104R, S105R, K106T, M107K
notes: VH dAb
B29: ABT2-65-166 (other)
VH: B2 VH with N56G, D74N, K98Q, T103L, Q104G, S105R, K106S, M107R
B30: ABT2-65-89 (other)
VH: B2 VH with A23V, K98Q, L100M, T103L, Q104G, S105R, K106S, M107R
notes: VH dAb
B31: ABT2-65-79 (other)
VH: B2 VH with A23V, E89G, K98Q, T103L, Q104G, S105R, K106S, M107R, L118M
notes: VH dAb
B32: ABT2-65-8 (other)
VH: B2 VH with K98Q, T103M, Q104D, K106R, M107R
B33: ABT2-60 (other)
VL: DIQMTQSPSSLSASVGDRVTITCRASQSIRVFLSWYQQKPGKAPKLLIYNASNLQSGVPSRFSGSGSGTDFTLTISSLQPEDFATYYCQQRALYPTTFGQGTKVEIKR
notes: VK dAb
B34: ABT2-59 (other)
VL: B33 VL with R30N
notes: VK dAb
B35: ABT2-62 (other)
VL: B33 VL with R30Q, V31T, F32Y
notes: VK dAb
B36: ABT2-61 (other)
VL: B33 VL with N53H
notes: VK dAb

Target: T1, human IL-1α
Experiment: cell-based or functional assay

Row | IL-1α IC50 | Binder
1 | 1000 nM | B1
2 | 7000 nM | B2
3 | 100 nM | B3
4 | 450 nM | B4
5 | 70 nM | B5
6 | 2000 nM | B6
7 | 17.5 nM | B7
8 | 400 nM | B8
9 | 150 nM | B9
10 | 150 nM | B10
11 | 150 nM | B11
12 | 25 nM | B12
13 | 10.1 nM | B13
14 | 70 nM | B14
15 | 150 nM | B15
16 | 18.5 nM | B16

Target: human IL-1β (human, UniProt P01584 117-269)
Experiment: cell-based or functional assay

Row | IL-1β IC50 | Binder
17 | 100 nM | B2
18 | 0.09 nM | B4
19 | 0.4 nM | B5
20 | 20 nM | B6
21 | 0.005 nM | B7
22 | 20 nM | B8
23 | 0.006 nM | B9
24 | 15 nM | B10
25 | 9 nM | B11
26 | 0.015 nM | B12
27 | 0.00482 nM | B13
28 | 7 nM | B14
29 | 0.16 nM | B15
30 | 0.00555 nM | B16

Target: T2, human IL-1β (human, UniProt P01584 117-269)
Experiment: cell-based or functional assay

Row | ND50 | Binder
31 | 1000 nM | B17
32 | 505 nM | B18
33 | > 1000 nM | B19
34 | 2 nM | B20
35 | 80 nM | B21
36 | 3 nM | B22
37 | 80 nM | B23
38 | 200 nM | B24
39 | 2 nM | B25
40 | 2 nM | B26
41 | 1 nM | B27
42 | 1.5 nM | B28
43 | 4 nM | B29
44 | 2 nM | B30
45 | 2 nM | B31
46 | 3 nM | B32
47 | > 1000 nM | B33
48 | > 1000 nM | B34
49 | > 1000 nM | B35
50 | > 1000 nM | B36

Target: T2, human IL-1β
Experiment: IC50 column of Table 63; receptor binding assay presumed

Row | IC50 | Binder
51 | 175 nM | B17
52 | 100 nM | B18
53 | 30 nM | B19
54 | 8 nM | B20
55 | 20 nM | B21
56 | 3.3 nM | B22
57 | 20 nM | B23
58 | 30 nM | B24
59 | 10 nM | B25
60 | 7 nM | B26
61 | 2 nM | B27
62 | 3 nM | B28
63 | 4 nM | B29
64 | 10 nM | B30
65 | 6 nM | B31
66 | 10 nM | B32
67 | 1000 nM | B33
68 | 700 nM | B34
69 | 1000 nM | B35
70 | 1000 nM | B36

Source: patent publication US20090291081A1 (AbbVie / Abbott, published 2009)
